± gives the standard deviation of the averaged measurements.
System: ATP
Test: switch fluorescence ratio, 500 uM ATP over buffer (Cy3 cluster intensity, sum of 5 cycles each) (fold (ratio)); higher = stronger signal-on switching upon ATP binding; sequences stand for … in TCGTCGGCAGCGTCAGATGTGTATAAGAGACAGTTTTTTTTTTTTTTTTTTTTTTTTT…TC
Conditions: aptamer strand: ATP DNA aptamer (quencher-CACCTGGGGGAGTATTGCGGAGGAAGG + anchor), 100 nM annealed; ATP concentration: 500 uM
In short: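 Five buffer/ATP imaging cycles were run on Cy3-labelled switching-strand clusters on a modified Illumina MiSeq flow-cell, with NaOH stripping and re-annealing between cycles. In each cycle, clusters annealed to 100 nM quencher-labelled ATP aptamer were imaged in selection buffer, then after 15 min with 500 uM ATP at 22 °C. Per cluster, the fluorescence ratio is summed target-cycle over summed buffer-cycle Cy3 intensity, averaged per switch-domain sequence. Only clusters within 100-1000 RFU were kept.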
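Also: ATP exposure 15 min at 22 °C before imaging.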

TTTTATAAGG gave a switch fluorescence ratio of 1.01 ± 0.023.

Work on TTTTATAATT yielded a switch fluorescence ratio of 1.04 ± 0.089.

Sequence TTTTATATTT has a switch fluorescence ratio of 1 ± 0.034.

TTTTATCCTT showed a switch fluorescence ratio of 1 ± 0.028.

Sequence TTTTATCTAA has a switch fluorescence ratio of 0.988 ± 0.048.

With TTTTATCTGA the switch fluorescence ratio was 1.02 ± 0.028.

With TTTTATGAGG the switch fluorescence ratio was 0.973 ± 0.03.

TTTTATGC gave a switch fluorescence ratio of 1.01 ± 0.061.

In the case of TTTTATTAAT, the switch fluorescence ratio is reported as 0.978 ± 0.04.

In the case of TTTTATTACT, the switch fluorescence ratio is reported as 2.27 ± 1.8.

In the case of TTTTATTATC, the switch fluorescence ratio is reported as 0.9986 ± 0.0079.

For TTTTATTCCT, the switch fluorescence ratio was 1.04 ± 0.037.

Sequence TTTTATTCGG has a switch fluorescence ratio of 0.9614 ± 0.0095.

For TTTTATTTA, the switch fluorescence ratio was 0.9701 ± 0.0072.

In the case of TTTTATTTAT, the switch fluorescence ratio is reported as 1.02 ± 0.053.

TTTTATTTCG was tested, and the switch fluorescence ratio was 1.03 ± 0.068.

Sequence TTTTCAAAAA has a switch fluorescence ratio of 1.13 ± 0.19.

For TTTTCAAGGT, the switch fluorescence ratio was 0.992 ± 0.019.

With TTTTCACCGT the switch fluorescence ratio was 1.06 ± 0.027.

TTTTCAGAGT showed a switch fluorescence ratio of 1 ± 0.022.

In the case of TTTTCAGGCG, the switch fluorescence ratio is reported as 1 ± 0.07.

For TTTTCATGGG, the switch fluorescence ratio was 0.995 ± 0.013.

With TTTTCATTCC the switch fluorescence ratio was 1.13 ± 0.15.

Work on TTTTCATTGT yielded a switch fluorescence ratio of 1.02 ± 0.036.

In the case of TTTTCCAAAT, the switch fluorescence ratio is reported as 1.02 ± 0.024.

Work on TTTTCCCCGT yielded a switch fluorescence ratio of 1.38 ± 0.56.

TTTTCCGGGC gave a switch fluorescence ratio of 1.1 ± 0.014.

In the case of TTTTCCTACG, the switch fluorescence ratio is reported as 2.38 ± 1.6.

TTTTCCTGGA showed a switch fluorescence ratio of 1.03 ± 0.066.

TTTTCCTTTT showed a switch fluorescence ratio of 1.04 ± 0.082.

With TTTTCGAGGG the switch fluorescence ratio was 1.01 ± 0.023.

For TTTTCGATGG, the switch fluorescence ratio was 1.01 ± 0.016.

For TTTTCGATTG, the switch fluorescence ratio was 1.01 ± 0.041.

For TTTTCGCTAA, the switch fluorescence ratio was 1.55 ± 0.96.

For TTTTCGGGAA, the switch fluorescence ratio was 1.011 ± 0.0057.

With TTTTCGGGGA the switch fluorescence ratio was 0.978 ± 0.018.

TTTTCGGGTT was tested, and the switch fluorescence ratio was 1 ± 0.04.

Sequence TTTTCGTGGG has a switch fluorescence ratio of 0.986 ± 0.027.

With TTTTCTATGT the switch fluorescence ratio was 1 ± 0.019.

For TTTTCTCCGT, the switch fluorescence ratio was 1.3 ± 0.43.

For TTTTCTGCCG, the switch fluorescence ratio was 1.03 ± 0.045.

Work on TTTTCTGGTT yielded a switch fluorescence ratio of 0.97 ± 0.054.

TTTTCTGTG showed a switch fluorescence ratio of 0.977 ± 0.031.

TTTTCTGTTA was tested, and the switch fluorescence ratio was 1.032 ± 0.0085.

Work on TTTTCTTATC yielded a switch fluorescence ratio of 1.02 ± 0.048.

In the case of TTTTCTTGGT, the switch fluorescence ratio is reported as 1.01 ± 0.012.

TTTTCTTGTC was tested, and the switch fluorescence ratio was 1.038 ± 0.0076.

Work on TTTTCTTGTT yielded a switch fluorescence ratio of 0.9949 ± 0.0062.

In the case of TTTTCTTTAA, the switch fluorescence ratio is reported as 0.9798 ± 0.0051.

TTTTGAAATT was tested, and the switch fluorescence ratio was 1 ± 0.046.

TTTTGAACCC gave a switch fluorescence ratio of 0.984 ± 0.08.

TTTTGAATCG showed a switch fluorescence ratio of 1.008 ± 0.0091.

For TTTTGACGCT, the switch fluorescence ratio was 0.977 ± 0.012.

With TTTTGACGGA the switch fluorescence ratio was 0.994 ± 0.027.

For TTTTGAGCAC, the switch fluorescence ratio was 1.16 ± 0.26.

TTTTGAGGGC was tested, and the switch fluorescence ratio was 1.01 ± 0.059.

Work on TTTTGAGGGG yielded a switch fluorescence ratio of 1.01 ± 0.042.

TTTTGATAAT showed a switch fluorescence ratio of 0.991 ± 0.016.

TTTTGATCTA showed a switch fluorescence ratio of 0.97 ± 0.019.

For TTTTGATTCC, the switch fluorescence ratio was 1.036 ± 0.009.

Work on TTTTGATTTC yielded a switch fluorescence ratio of 1.02 ± 0.039.

Work on TTTTGATTTG yielded a switch fluorescence ratio of 1 ± 0.034.

TTTTGCAGCC gave a switch fluorescence ratio of 0.976 ± 0.02.

In the case of TTTTGCAGGT, the switch fluorescence ratio is reported as 1.03 ± 0.026.

TTTTGCATGA gave a switch fluorescence ratio of 1 ± 0.043.

For TTTTGCGAGG, the switch fluorescence ratio was 1.03 ± 0.014.

For TTTTGCGCAA, the switch fluorescence ratio was 0.9922 ± 0.0048.

For TTTTGCGCTC, the switch fluorescence ratio was 1 ± 0.027.

With TTTTGCGCTG the switch fluorescence ratio was 0.94 ± 0.019.

Work on TTTTGCGGGT yielded a switch fluorescence ratio of 0.983 ± 0.032.

With TTTTGCGGTC the switch fluorescence ratio was 1.02 ± 0.053.

For TTTTGCTGAC, the switch fluorescence ratio was 1.14 ± 0.1.

Sequence TTTTGCTGCG has a switch fluorescence ratio of 1.023 ± 0.0033.

In the case of TTTTGCTTGA, the switch fluorescence ratio is reported as 1.07 ± 0.052.

TTTTGGAATG was tested, and the switch fluorescence ratio was 1.011 ± 0.0027.

TTTTGGAGCC was tested, and the switch fluorescence ratio was 1.06 ± 0.046.

TTTTGGAGCG gave a switch fluorescence ratio of 1.05 ± 0.052.

TTTTGGAGGT was tested, and the switch fluorescence ratio was 1.01 ± 0.013.

With TTTTGGATTA the switch fluorescence ratio was 1 ± 0.039.

For TTTTGGCCCC, the switch fluorescence ratio was 1.07 ± 0.084.

For TTTTGGGAT, the switch fluorescence ratio was 1.04 ± 0.15.

With TTTTGGGCTG the switch fluorescence ratio was 1 ± 0.067.

With TTTTGGGTAG the switch fluorescence ratio was 0.984 ± 0.03.

Work on TTTTGGGTAT yielded a switch fluorescence ratio of 0.985 ± 0.032.

In the case of TTTTGGGTGG, the switch fluorescence ratio is reported as 0.988 ± 0.034.

TTTTGGTAAC gave a switch fluorescence ratio of 1.014 ± 0.0072.

TTTTGGTATT gave a switch fluorescence ratio of 1.02 ± 0.044.

Work on TTTTGGTCAA yielded a switch fluorescence ratio of 1.02 ± 0.037.

Sequence TTTTGGTCCA has a switch fluorescence ratio of 0.981 ± 0.015.

TTTTGGTCGG showed a switch fluorescence ratio of 0.983 ± 0.022.

In the case of TTTTGTAGTT, the switch fluorescence ratio is reported as 1 ± 0.043.

With TTTTGTATTA the switch fluorescence ratio was 0.99 ± 0.029.

With TTTTGTCGCG the switch fluorescence ratio was 0.9735 ± 0.0032.

In the case of TTTTGTCTTT, the switch fluorescence ratio is reported as 1 ± 0.032.

TTTTGTGACA showed a switch fluorescence ratio of 1 ± 0.027.

TTTTGTGG gave a switch fluorescence ratio of 1.01 ± 0.073.

Sequence TTTTGTGTA has a switch fluorescence ratio of 0.994 ± 0.022.

For TTTTGTGTTT, the switch fluorescence ratio was 0.997 ± 0.028.

For TTTTGTTAAT, the switch fluorescence ratio was 1.01 ± 0.035.

TTTTGTTCAG showed a switch fluorescence ratio of 0.985 ± 0.037.

Work on TTTTGTTCCT yielded a switch fluorescence ratio of 1.02 ± 0.026.

Sequence TTTTGTTGCG has a switch fluorescence ratio of 1.03 ± 0.043.

TTTTTAAATG was tested, and the switch fluorescence ratio was 0.991 ± 0.017.

In the case of TTTTTAACCT, the switch fluorescence ratio is reported as 1.57 ± 0.36.

TTTTTAAGTT was tested, and the switch fluorescence ratio was 1 ± 0.028.

For TTTTTAATGC, the switch fluorescence ratio was 0.979 ± 0.034.

TTTTTAATTA showed a switch fluorescence ratio of 1.005 ± 0.008.

For TTTTTAATTG, the switch fluorescence ratio was 0.997 ± 0.024.

With TTTTTACCCG the switch fluorescence ratio was 1.01 ± 0.013.

Sequence TTTTTACCGA has a switch fluorescence ratio of 1.014 ± 0.0082.

Work on TTTTTAGACG yielded a switch fluorescence ratio of 0.981 ± 0.057.

TTTTTAGAG was tested, and the switch fluorescence ratio was 0.999 ± 0.021.

TTTTTAGAGA gave a switch fluorescence ratio of 0.9912 ± 0.007.

Sequence TTTTTAGGGG has a switch fluorescence ratio of 1.02 ± 0.055.

TTTTTAGTAA showed a switch fluorescence ratio of 0.979 ± 0.028.

Work on TTTTTAGTAC yielded a switch fluorescence ratio of 0.99 ± 0.013.

For TTTTTATGAG, the switch fluorescence ratio was 1 ± 0.036.

With TTTTTATGCA the switch fluorescence ratio was 1.018 ± 0.0031.

Work on TTTTTATTAT yielded a switch fluorescence ratio of 1.01 ± 0.036.

TTTTTATTCT showed a switch fluorescence ratio of 1.02 ± 0.02.

TTTTTATTGT showed a switch fluorescence ratio of 0.997 ± 0.035.

With TTTTTCAATC the switch fluorescence ratio was 1.07 ± 0.035.

TTTTTCACTA gave a switch fluorescence ratio of 1.03 ± 0.033.

TTTTTCAGGG was tested, and the switch fluorescence ratio was 1.01 ± 0.026.

TTTTTCAGGT gave a switch fluorescence ratio of 0.997 ± 0.015.

TTTTTCCAAA gave a switch fluorescence ratio of 1 ± 0.041.

With TTTTTCCCGA the switch fluorescence ratio was 1.018 ± 0.0038.

TTTTTCCCGG gave a switch fluorescence ratio of 1.17 ± 0.23.

In the case of TTTTTCCGCT, the switch fluorescence ratio is reported as 1.86 ± 1.

Sequence TTTTTCCGTA has a switch fluorescence ratio of 1.02 ± 0.059.

TTTTTCGAGG was tested, and the switch fluorescence ratio was 0.997 ± 0.025.

TTTTTCGATA gave a switch fluorescence ratio of 1.06 ± 0.029.

TTTTTCGCTC showed a switch fluorescence ratio of 1.01 ± 0.042.

In the case of TTTTTCGGGG, the switch fluorescence ratio is reported as 1.02 ± 0.032.

TTTTTCGTTA was tested, and the switch fluorescence ratio was 1.1 ± 0.083.

TTTTTGAGTA showed a switch fluorescence ratio of 1.02 ± 0.03.

Sequence TTTTTGATAC has a switch fluorescence ratio of 1.063 ± 0.0034.

For TTTTTGCTTC, the switch fluorescence ratio was 1.02 ± 0.043.

Sequence TTTTTGGAAT has a switch fluorescence ratio of 1 ± 0.028.

With TTTTTGGACC the switch fluorescence ratio was 1.1 ± 0.22.

Sequence TTTTTGGATA has a switch fluorescence ratio of 1.02 ± 0.014.

With TTTTTGGCCA the switch fluorescence ratio was 1.01 ± 0.051.

Work on TTTTTGGCCC yielded a switch fluorescence ratio of 0.9649 ± 0.0018.

TTTTTGGCGG gave a switch fluorescence ratio of 0.978 ± 0.038.

TTTTTGGGAA was tested, and the switch fluorescence ratio was 0.996 ± 0.029.

TTTTTGGTGT showed a switch fluorescence ratio of 1.03 ± 0.036.

TTTTTGTAAG was tested, and the switch fluorescence ratio was 0.998 ± 0.043.

Work on TTTTTGTACG yielded a switch fluorescence ratio of 0.998 ± 0.025.

TTTTTGTCGC gave a switch fluorescence ratio of 0.992 ± 0.025.

In the case of TTTTTGTCTT, the switch fluorescence ratio is reported as 0.96 ± 0.023.

In the case of TTTTTGTGAC, the switch fluorescence ratio is reported as 0.999 ± 0.027.

TTTTTGTGGC showed a switch fluorescence ratio of 0.985 ± 0.03.

TTTTTGTGGG showed a switch fluorescence ratio of 0.993 ± 0.023.

TTTTTGTTAC showed a switch fluorescence ratio of 1.08 ± 0.027.

TTTTTGTTAG gave a switch fluorescence ratio of 0.965 ± 0.024.

TTTTTGTTAT was tested, and the switch fluorescence ratio was 0.996 ± 0.02.

For TTTTTTAAAT, the switch fluorescence ratio was 0.987 ± 0.022.
